Measured values reported in the nanobody polyreactivity screen of Harvey et al. (2022).

Test: yeast display, Sf9 membrane polyspecificity reagent, FACS + sequencing; frameworks hold sequencing errors
In short: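 Synthetic nanobody libraries on Saccharomyces cerevisiae BJ5465 were galactose-induced for 36–48 hours, stained 1 hour at 4 °C with 10% biotinylated, detergent-solubilized Sf9 membrane reagent and enriched on streptavidin microbeads. FACS then separated cells into low and high (top ~1%) gates by anti-HA (expression) and streptavidin (reagent binding) fluorescence. Genes were colony-PCR amplified, MiSeq 2 × 250 sequenced and CDR-length filtered. A clone's polyreactivity label is that of its gate of origin.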

| Sequence | polyreactivity (PSR sort gate) |
| --- | --- |
| QVQLVESGGGLVQAGGSLLLSWAASGRSFKYNAMGWDRQAPGKERELVAAISGSGGRTYYADSVKGRFTISRDNAKNTVYLQMNSLIPEDTAVYYCNARYVLYKPDYHRGGRMGYWGQGTQVTVSS | high polyreactivity |
| QVQLVESGGGLVQAGGSLRLSCAASGSTFVYNAMGWYRQAPGKEREFVAVINWSGGRTYADSVKGRFTISRDNAKNTVYLQMNSLKPEDTAVYYCNARRRTGYRPAMDYWGQGTQVTVSS | high polyreactivity |
| QVQLVESGGGLVQAGGSLRLSCAASGLTFVYYAMGWYRQAPGKERELVASITRGGSTNYADSVKGRFTISRDNAKNTVYLQMTSLKPEDTAVYYCAAGYGGWAWIHVSYGGDYWGQGTQVSVSS | low polyreactivity |
| QVQLEESGRGLVQAGGSLRLSCAASGSISGYYAMGWYRQAPGKERELVAVITSSGTSTYYADSVKGRFTISRDNAKNTVYLQMNSLKPEDTAVYDCWGQGTQVTVSS | low polyreactivity |
| QVQLVESGGGLVQAGGSLRLSCAASGITFQRYAMGWYRQAPGKVRELVAAITRRGGSTYYADSVKGRFTISRDNAKNTVYLQMNSLKPEDTAVYYCAADLFFKARGYDYWGQGTQVTVSS | high polyreactivity |
| QVQLVESGGGLVQAGGSLRLSCAASGLIFWYYAMGWYRQAPGTERELVASISSGGDTTYADSVKGRFTISRDNAKKTVYLQMNSLKPEDTAVYDCAAERYVRVWVAGILHYDYWGQGTQVTGSS | low polyreactivity |
| QVQLVESGGGLVQAGGSLRLSCAASGFIFRFNAMGWYRQAPGKERELVAAITYRGITYYADSVKGRFTISRDNAKNTVYLQMNSLKPEDTAVYYCAKRTSARGLYGVYFGRYEYWGQGTQVTVSS | high polyreactivity |
| QVQLVESGGGLVQAGGSLRLSCAASGSIFAYYTMGWYRQAPGKERELVARISSRGGRTYYADSVKGRFTISRDNAKNTVYLQMNSLKPEDTAVYYCNAGYSYRKYDYWGQGTQVTVSS | high polyreactivity |
| QVQLVESGGGLVQAGGSLRLSCAASGRIFTANAMGWYRQAPGKERELVAAITSGTRTNYADSVKGRFTISRDNAKNTVYLQMNSLKPEDTAVFYCAKETATSKYDYWGQGTQVTVSS | low polyreactivity |
| QVQLVESGGGLVQAGGSLRLSFAASGSIFVGYAMGLYRQAPGKERELVAAISWSGDSTYYADSVKGRFTISRDNAKNTVYLQMYSLKPEDTAVPYCAVDPQQVRTLDYYVGYDYWGQGTQVTVSS | low polyreactivity |
| QVQLVESGGGLVQAGGSLRLSCAASGRTFSVNAMGWYRQAPGKERELVAAITSGGSTYYADSVKGRFTISRDNAKNTVYLQMNSLKPEDTAVYYCNADLEPYDYWGQGTQVTVSS | low polyreactivity |
| QEQLVESGGGLVQAGGSLRLSCAASGSIQPNAMGWYRQAPGKEREFVAAISRSGASTYYADSVKGRFTISRDNAKNTVYLQMNSLKPADTAVYYCAADFYYYNNNDYDYWGQGTQVTVSS | high polyreactivity |
| QVQLVESGGGLLQAGGSLRLSCAASGFTIQRYAMGWYRQAPGKERELVAAITSGGSTYYADSVKGRFTISRDNAKNTVYLQMNSLKPEDTAVYYCATRAVWSSWGRRYDSWGQGTQVTVSS | high polyreactivity |
| QVQIVESGGGLVQAGGSLRLSCAASGSTFSVYAMGWYRQAPGKDRELVVAIRSSGGSTYYAHSVKGRFTISRDNAKNTVYLQMNSLKPEDTAVYYCATRIIVGSYRYDYWGQATQVTVSS | low polyreactivity |
| QVQLVESGGGLVQAGGSLRLSCAASGFIFGYNDMGWYRQAPGKERELVAAINSGGSTYYADSVKGRFTISRDNAKNTVYLQMNSLKPEDTAVYYCAADYGYFEYDYWGQGTQVTVSS | low polyreactivity |
| QVQLVESGGGLVQAGGSLRLSCAASGIIFSYNVMGWSREARGKEREFVAAISRSVGSTYYADSVKGRFTISRDNAKNTVYLPMNSLKPEDTAVYYCNARGKRRGKIPYSSYASSYDSWGQGTQVTVSS | high polyreactivity |
| QVQLVESGGGLDQAGSSLSLSCDSSGRIFYGYAMGWYRQEPGKERELVAAISWRGGRTYYADSVKGRFTISRDNAKNTVYLQMNRLIPEDTAVYYCNKDFPPQGKLLNMYYWGQGTQVTLSS | high polyreactivity |
| QVQLVESGGGLVQAGGSLRLSCAASGYIFDRYAMGWYRQAPGKERELVAAISGRGGSTYYADSVKGRFTISRDNAKNTVSLQMNSLKPEDTAVYYCARDVYVRNGQRARYDSWGQGTQVTVSS | high polyreactivity |
| QVQHVESGGGLVQAGGSLRLSCAASGTIFEGKGMGWYRQAPGKERELVAAITFRSGSTYYADSVKGRFTISRDNAKNTVYLQMNSLKPEDTAVYYCAADEYYQVSAYDYWGQGTQVTVSS | low polyreactivity |
| QVQLVESAGGLVQAGGSLRLSCAATGLIFKYYAMVWYRQAPGKEREMVATITRGGGSTYYADSVKGRFTISRDNAKNTVYFQMNSLKPEDTAVYYCAKRTSWKYGYWGQGTQVTVSS | high polyreactivity |
| QVQLVESGGGLVQAGGSLRLSCAASGFTFVGNAMGWSRQAPGKERELVATITSGGNTKYADSVKGRFTISRDNAKNTVYLQMHSLKPEDTAVYYCAAAKYNYRRFNYWGQGTQVTVSS | low polyreactivity |
| QVQLEESGGGLVQAGGSLRLSCAATGRIFSYAMGWYRQAPGKETELVAGISRSGGSTYYADSVKGRFTISSDNAKITVYLQMNSVKPEDTAVYYCARYDRGGRHYYYWGQGTQVTVSS | high polyreactivity |

| Sequence | polyreactivity (PSR sort gate) |
| --- | --- |
| QVQLVESGGGLVQAGGSLRLSCAASGRNFPYYAMGWYRQAPGKERELVAAISSSGGRTYYADSVKGRFTISRDNAKNTVYLQMNSLIPEDTAVYYCNVDAWYPYQGFLVGYYYWGQGTQVTVSS | low polyreactivity |
| QVQLVESAAGLVQAGGSLRLSGAASGRIFRYNAMGGYRQAPGNERELVAAISSGGSTNYADSVKGRFTTSRDNAKNTVYLQMNSLKPEDTAVYYCNADSVHRYPGWGYDYWGLGTQVTVSS | low polyreactivity |
| QVQLQESGGGLVQAGGSLRLSCAASGTISPLPAMGWYRQAPGKEREFVPGIDTGAITNYADSVKGRFTISRDNAKNTVYLQMNSLKPEDTAVYYCAVFPAAYDYYERYYTYWGQGTQVTVSS | low polyreactivity |
| QVQLVESGGGLVQAGGRLRLSCAASGYIFKSYVMGWYRQAPGKERELVAAITWSGGSTYYADSVKGRFTISRDNAKNTVYLQMNSLKPEDTAVYYCAAYPRRYRTTYDYWGQGTQVTVSS | high polyreactivity |
| QVQFVESGGGLVQAGGSLRLSCAASGSIFALYAMGWYRQAPGKERELVAAISYRGGRTYYADSVKGRFTISRDNAKNTVYLQMNSLKPEDTAVYYCATDFPGKFDYWGQGTQVTVSS | low polyreactivity |
| QVQLVESGGGLVQAGGSLRLICDASGRIFGDNAMGWYRQAPGKEREFVATINGSGGSTYYADSVKGRFTISRDNAKNTVYLQMNSLKPEVTAVYYCFVQQNYGYDYWGQGTQVTVSS | low polyreactivity |
| QVQLVESGGGLVQAGGSLRLSCAASGSIFYGYAMGWYRQAPGKERELVAAITWSGGSTYYADSVKGRFTISRDNAKNTVYLQINSLKPEDTAVYYCNAVSTRFRVRTSDYWGQGTQVTVSS | high polyreactivity |
| QVQLVESGGGLVQAGGSLRLSCAASGFIFDGYAMGWYRPAPGKERELVAAIDSGGDRTYYADSVKGRFTISRDNAKNTVYLQMNSLKPEDTAVYYCAADSSDPTGYDYWGQGTQVTVSS | low polyreactivity |
| QVQLVESGGGLVQAGGSLRLSCAASGNTFYKNTMGWYRQAPGKERELVAAISQRGTRTYYADSVKGRFTISRDNAKNSVYLQLYSLNPEDTAVYYCATDLSQVGFDYWGQGTQVTVSS | high polyreactivity |
| QVQLVESGGCLVQEGGSLRLSCDASGRTFLTYAMGWYRQAPGKERELVAAITDGDSTNYADSVKGRFTISRDNAKNNVYLQMNSLKPEDTAVYYCNADSLAYRYYYWGQGTQVTVSS | high polyreactivity |
| QVQLVESGGGLVQAGGSLRLICAASGRIFCRNTMGWYRQAPGKERELVAAINYSGGRTYYADSVKGRFTISRDNAKNTVYLLMNSLKPEDTAVYYCAATPPVATNGRYYYWGQGTQVTVSS | low polyreactivity |
| QVQLVESGGGLVQAGGSLRLSCAASGSTFPFYVMGWYRQAPGKERELVASIRGTGGNTYYADSVKGRFTISRDNAKNTVYLQMNSLKPEDTAVYYCNAVYRLSHYDLDYWGQGTQVTVSS | high polyreactivity |
| QVQLVESGGGLVQAGGSLRLSCAASGLTFVQNAMGWYRQAPGKERELVAAISSRGGSTYYADSVKGRFTISRDNAKNTVYLQMNSLKPEETAVYYCNTRSITKYDYWRRGYGYWGQGTQVTVSS | high polyreactivity |
| QVQLQESGGGLVQAGGSLRLSCAASGNISSYYRMGWYRQAPGKEREFVATIAVGGTTNYADSVKGRFTISRDNAINTVFLQRNSLNTEDTAVCFCAANSTQYTWFDYWGQGTQVPVSS | low polyreactivity |
| QVQLVESGGGLVQAGGSLRLSCAASGFTFWTNAMGWYRQAPGKERELVAAITSSGGTTYYADSVKGRFTISRDNAKNTVYLQMNSLKPEDTAVYYCAAELGGYVASYYYPGYDYWGQGTQVTVSS | low polyreactivity |
| QVQLVESGGGLVQAGGSLRLSCAASGSTFYSYAMGWYRQAPGKERELVAAIDWSGDNTNYADSVKGRFTISRDNAKNTVYLQMNSLKPEDTAVYYCAADWYYTRRRYNYWGQGTQVTVSS | low polyreactivity |
| QVQLVESRGGLVQAGGSLRLSCAASGRNFRFNAMGWYRQEPGKERELVAAISASGGITYYADSVKGRFTISRDNAKNTVYLQMNSLKPEDSAVYYCAADLYATWSYFFTWLDNWGQGTQVTVSS | high polyreactivity |
| QVHLVESGGGLVQAGGSLRLSCAASGIIFPSYAMGWYRQAPGKERELVAAIDGSGGITYYADSVKGRFTISRDNAKNTVYLQLNSLKPEDTAVYYCNAEREYYDYGNDDYWGPGTQVTVSS | low polyreactivity |
| QVQLVESAAGLVQAGGSHRLSCAASGFTFDHYAMGWSRQEPGKESELVAAISKRGGTTYYADSVKGRFTISRDNAKNTVYLQTKSLKPEDTAVYYCNADVNNWEDDYYYWGQGTQVTVSS | high polyreactivity |
| QVQLVESGGGLVQAGCSLRLSCAASGRIFVKYTMGWYRQAPGKERELVAAIDFDTDSKYYADSVKGRFTFSRDNAKNTVYFQMNSLNPEDTAVYYCAADSYYYGYQGQTQYGWVWYDYWGQVTQVTVSS | low polyreactivity |
| QVQLVESGGGLFQAGGSLRLSCAASGSIFNRYAMGWYRQAPGKERELVAAISSGGRTKYADSVKGRFTISRDNAKNTVYLQMNSLKPEDTAVYYCNAAYFLSGTCRTFDYWGQGTQVTVSS | high polyreactivity |
